Target: the molecule itself
Assay: SEC

B1: EGFP-WT-mVP40 (natural protein)
chain: MASSSNYNTYMQYLNPPPYADHGANQLIPADQLSNQQGITPNYVGDLNLDDQFKGNVCHAFTLEAIIDISAYNERTVKGVPAWLPLGIMSNFEYPLAHTVAALLTGSYTITQFTHNGQKFVRVNRLGTGIPAHPLRMLREGNQAFIQNMVIPRNFSTNQFTYNLTNLVLSVQKLPDDAWRPSKDKLIGNTMHPAVSIHPNLPPIVLPTVKKQAYRQHKNPNNGPLLAISGILHQLRVEKVPEKTSLFRISLPADMFSVKEGMMKKRGENSPVVYFQAPENFPLNGFNNRQVVLAYANPTLSAV
stoichiometry N: 6

— article doi:10.1101/2020.11.13.381350 (bioRxiv, 2020)
